From patent publication US20140271457A1 (AbbVie / Abbott, published 2014)
Where a chain is given by its changes, count along the chain named.

B1: DVD3116 (bispecific antibody, IgG1)
VH: EVQLVQSGAEVKKPGASVKVSCKASGYTFNNYGIIWVRQAPGQGLEWMGWINTYTGKPTYAQKFQGRVTMTTDTSTSTAYMELSSLRSEDTAVYYCARKLFNTVAVTDNAMDYWGQGTTVTVSSASTKGPEVQLVQSGAEVKKPGASVKVSCKASGYTFTTYGVSWVRQAPGQGLEWMGEIYPGNYNTYYNEKFRGRVTMTTDTSTSTAYMELRSLRSDDTAVYYCARWRTSYFSDYGYFDYWGQGTTVTVSS
VL: DIQMTQSPSSLSASVGDRVTITCRASQDIENYLNWYQQKPGKAPKLLIYYTSRLQSGVPSRFSGSGSGTDFTLTISSLQPEDFATYFCQQGNTQPPTFGQGTKLEIKRTVAAPSVFIFPPDVVMTQSPLSLPVTLGQPASISCRSSQSLVHSHGNTYLHWYQQRPGQSPRLLIYTVSNRFSGVPDRFSGSGSGTDFTLKISRVEAEDVGVYYCSQSTHVPYTFGGGTKVEIKR
notes: DVD-Ig; wt hIgG1 + kappa constants
B2: DVD3173 (bispecific antibody, IgG1)
VH: EVQLVQSGAEVKKPGASVKVSCKASGYTFNNYGIIWVRQAPGQGLEWMGWINTYTGKPTYAQKFQGRVTMTTDTSTSTAYMELSSLRSEDTAVYYCARKLFNTVAVTDNAMDYWGQGTTVTVSSGGGGSGGGGSEVQLVQSGAEVKKPGASVKVSCKASGYTFTSYWMHWVRQAPGQGLEWIGNINPKGGSNIYNEKFQGRVTMTRDTSISTAYMELSRLRSDDTAVYYCARLDYFGDSFDLWGQGTTVTVSS
VL: DIQMTQSPSSLSASVGDRVTITCRASQDIENYLNWYQQKPGKAPKLLIYYTSRLQSGVPSRFSGSGSGTDFTLTISSLQPEDFATYFCQQGNTQPPTFGQGTKLEIKRGGSGGGGSGDIQMTQSPSSLSASVGDRVTITCRASQGIRNYLNWYQQKPGKAPKLLIYYASNLEVGVPSRFSGSGSGTDYTLTISSLQPEDFATYYCQQDNRFPYTFGGGTKVEIKR
notes: as for B1
B3: DVD3174 (bispecific antibody, IgG1)
VH: EVQLVQSGAEVKKPGASVKVSCKASGYTFNNYGIIWVRQAPGQGLEWMGWINTYTGKPTYAQKFQGRVTMTTDTSTSTAYMELSSLRSEDTAVYYCARKLFNTVAVTDNAMDYWGQGTTVTVSSASTKGPEVQLVQSGAEVKKPGASVKVSCKASGYTFTSYWMHWVRQAPGQGLEWIGNINPKGGSNIYNEKFQGRVTMTRDTSISTAYMELSRLRSDDTAVYYCARLDYFGDSFDLWGQGTTVTVSS
VL: DIQMTQSPSSLSASVGDRVTITCRASQDIENYLNWYQQKPGKAPKLLIYYTSRLQSGVPSRFSGSGSGTDFTLTISSLQPEDFATYFCQQGNTQPPTFGQGTKLEIKRTVAAPDIQMTQSPSSLSASVGDRVTITCRASQGIRNYLNWYQQKPGKAPKLLIYYASNLEVGVPSRFSGSGSGTDYTLTISSLQPEDFATYYCQQDNRFPYTFGGGTKVEIKR
notes: as for B1
B4: DVD3176 (bispecific antibody, IgG1)
VH: B3 VH
VL: DIQMTQSPSSLSASVGDRVTITCRASQDIENYLNWYQQKPGKAPKLLIYYTSRLQSGVPSRFSGSGSGTDFTLTISSLQPEDFATYFCQQGNTQPPTFGQGTKLEIKRTVAAPSVFIFPPDIQMTQSPSSLSASVGDRVTITCRASQGIRNYLNWYQQKPGKAPKLLIYYASNLEVGVPSRFSGSGSGTDYTLTISSLQPEDFATYYCQQDNRFPYTFGGGTKVEIKR
notes: as for B1
B5: DVD3044 (bispecific antibody, IgG1)
VH: EVQLVESGGGLVQPGGSLRLSCAASGFSLTNNNVNWVRQAPGKGLEWVGGVWAGGATDYNSALKSRFTISRDNSKNTAYLQMNSLRAEDTAVYYCARDGGYSSSTLYAMDAWGQGTLVTVSSASTKGPEVQLVQSGAEVKKPGASVKVSCKASGYTFNNYGIIWVRQAPGQGLEWMGWINTYTGKPTYAQKFQGRVTMTTDTSTSTAYMELSSLRSEDTAVYYCARKLFNTVAVTDNAMDYWGQGTTVTVSS
VL: DIQMTQSPSSLSASVGDRVTITCRASEDIYNALAWYQQKPGKAPKLLIYNTDTLHTGVPSRFSGSGSGTDYTLTISSLQPEDFATYFCQHYFHYPRTFGQGTKVEIKRTVAAPDIQMTQSPSSLSASVGDRVTITCRASQDIENYLNWYQQKPGKAPKLLIYYTSRLQSGVPSRFSGSGSGTDFTLTISSLQPEDFATYFCQQGNTQPPTFGQGTKLEIKR
B6: AB397 (antibody, V domains shown)
VH: EVTLRESGPGLVKPTQTLTLTCTLYGFSLSTSDMGVDWIRQPPGKGLEWLAHIWWDDVKRYNPALKSRLTISKDTSKNQVVLKLTSVDPVDTATYYCARTVSSGYIYYAMDYWGQGTLVTVSS
VL: DIQMTQSPSSLSASVGDRVTISCRASQDIRNYLNWYQQKPGKAPKLLIFYTSKLHSGVPSRFSGSGSGTDYTLTISSLQPEDIATYYCQQGLTPPLTFGGGTKVEIKR
notes: parent antibody
B7: AB398 (antibody, V domains shown)
VH: EVQLVQSGAEVKKPGASVKVSCKASGYTFTTYGVSWVRQAPGQGLEWMGEIYPGNYNTYYNEKFRGRVTMTTDTSTSTAYMELRSLRSDDTAVYYCARWRTSYFSDYGYFDYWGQGTTVTVSS
VL: DVVMTQSPLSLPVTLGQPASISCRSSQSLVHSHGNTYLHWYQQRPGQSPRLLIYTVSNRFSGVPDRFSGSGSGTDFTLKISRVEAEDVGVYYCSQSTHVPYTFGGGTKVEIKR
notes: parent antibody
B8: AB399 (antibody, V domains shown)
VH: EVQLVQSGAEVKKPGASVKVSCKASGYTFTSYWMHWVRQAPGQGLEWIGNINPKGGSNIYNEKFQGRVTMTRDTSISTAYMELSRLRSDDTAVYYCARLDYFGDSFDLWGQGTTVTVSS
VL: DIQMTQSPSSLSASVGDRVTITCRASQGIRNYLNWYQQKPGKAPKLLIYYASNLEVGVPSRFSGSGSGTDYTLTISSLQPEDFATYYCQQDNRFPYTFGGGTKVEIKR
notes: parent antibody
B9: DVD2683 (bispecific antibody, IgG1)
VH: EVQLVESGGGLVQPGGSLRLSCAASGFTFSNYGVTWVRQAPGKGLEWVSMIWADGSTHYASSVKGRFTISRDNSKNTLYLQMNSLRAEDTAVYYCAREWQHGPVAYWGQGTLVTVSSGGGGSGGGGSEVTLRESGPGLVKPTQTLTLTCTLYGFSLSTSDMGVDWIRQPPGKGLEWLAHIWWDDVKRYNPALKSRLTISKDTSKNQVVLKLTSVDPVDTATYYCARTVSSGYIYYAMDYWGQGTLVTVSS
VL: DIQMTQSPSSLSASVGDRVTITCRASQLVSSAVAWYQQKPGKAPKLLIYWASARHTGVPSRFSGSGSGTDFTLTISSLQPEDFATYYCQQHYKTPFTFGQGTKLEIKRGGSGGGGSGDIQMTQSPSSLSASVGDRVTISCRASQDIRNYLNWYQQKPGKAPKLLIFYTSKLHSGVPSRFSGSGSGTDYTLTISSLQPEDIATYYCQQGLTPPLTFGGGTKVEIKR
notes: as for B1
B10: DVD2733 (bispecific antibody, IgG1)
VH: B9 VH with T35E, M50G, S61D, S62T, G65S
VL: B9 VL with R24K, A53T, R54L, K93R
notes: as for B1
B11: DVD2684 (bispecific antibody, IgG1)
VH: EVQLVESGGGLVQPGGSLRLSCAASGFTFSNYGVTWVRQAPGKGLEWVSMIWADGSTHYASSVKGRFTISRDNSKNTLYLQMNSLRAEDTAVYYCAREWQHGPVAYWGQGTLVTVSSASTKGPEVTLRESGPGLVKPTQTLTLTCTLYGFSLSTSDMGVDWIRQPPGKGLEWLAHIWWDDVKRYNPALKSRLTISKDTSKNQVVLKLTSVDPVDTATYYCARTVSSGYIYYAMDYWGQGTLVTVSS
VL: DIQMTQSPSSLSASVGDRVTITCRASQLVSSAVAWYQQKPGKAPKLLIYWASARHTGVPSRFSGSGSGTDFTLTISSLQPEDFATYYCQQHYKTPFTFGQGTKLEIKRTVAAPDIQMTQSPSSLSASVGDRVTISCRASQDIRNYLNWYQQKPGKAPKLLIFYTSKLHSGVPSRFSGSGSGTDYTLTISSLQPEDIATYYCQQGLTPPLTFGGGTKVEIKR
notes: as for B1
B12: DVD2734 (bispecific antibody, IgG1)
VH: B11 VH with T35E, M50G, S61D, S62T, G65S
VL: B11 VL with R24K, A53T, R54L, K93R
notes: as for B1
B13: DVD2686 (bispecific antibody, IgG1)
VH: B11 VH
VL: DIQMTQSPSSLSASVGDRVTITCRASQLVSSAVAWYQQKPGKAPKLLIYWASARHTGVPSRFSGSGSGTDFTLTISSLQPEDFATYYCQQHYKTPFTFGQGTKLEIKRTVAAPSVFIFPPDIQMTQSPSSLSASVGDRVTISCRASQDIRNYLNWYQQKPGKAPKLLIFYTSKLHSGVPSRFSGSGSGTDYTLTISSLQPEDIATYYCQQGLTPPLTFGGGTKVEIKR
notes: as for B1
B14: DVD2736 (bispecific antibody, IgG1)
VH: B11 VH with T35E, M50G, S61D, S62T, G65S
VL: B13 VL with R24K, A53T, R54L, K93R
notes: as for B1

How the values were obtained:
[1] = target: Recombinant Human IL-13 (human, UniProt P35225 35-146, limits assumed); test: Biacore SPR
Protocol: The BIACORE assay (GE, Healthcare Piscataway, N.J.) determined the affinity of antibodies or DVD-Ig with kinetic measurements of on-rate and off-rate constants. Binding of antibodies or DVD-Ig proteins to a target antigen (for example, a purified recombinant target antigen) was determined by surface plasmon resonance-based measurements with a Biacore T200 using running HBS-EP+buffer from GE Healthcare at 25° C. All chemicals were obtained from GE Healthcare or otherwise from a different source as described in the text. For example, approximately 5000 RU of goat anti-mouse IgG, (Fcγ), fragment specific polyclonal antibody (Pierce Biotechnology Inc, Rockford, Ill.) diluted in 10 mM sodium acetate (pH 4.5) was directly immobilized across a CM5 research grade biosensor chip using a standard amine coupling kit according to manufacturer's instructions. Unreacted moieties on the biosensor surface were blocked with ethanolamine. Modified carboxymethyl dextran surface in flowcell 1 was used as a reference surface. Rate constants were derived by making kinetic binding measurements at different antigen concentrations ranging from 0.8-100 nM. Binding was recorded as a function of time and kinetic rate constants were calculated. In this assay, association rate was evaluated for 5 min and dissociation was monitored for 10 min. For kinetic screening analysis, rate equations derived from the 1:1 binding model were fitted simultaneously to association and dissociation phases of all injections (using global fit analysis with Rmax fit locally to account for capture variations) with the use of Biaevaluation software. Purified antibodies or DVD-Ig proteins were diluted in HEPES-buffered saline for capture across goat anti-mouse IgG specific reaction surfaces. Antibodies or DVD-Ig proteins to be captured as a ligand were injected over reaction matrices at a flow rate of 5 μl/minute. The association and dissociation rate constants, kₒₙ (M⁻¹ s⁻¹) and koff (s⁻¹) were determined under a continuous flow rate of 50 μl/minute. Rate constants were derived by making kinetic binding measurements at different antigen concentrations ranging from 0.8-100 nM. Binding was recorded as a function of time and kinetic rate constants were calculated. In this assay, association rate was evaluated for 5 min and dissociation was monitored for 10 min.

[2] = target: Recombinant Human TNF-α/TNFSF1A (human, UniProt P01375 77-233); test: cell-based or functional assay
Recombinant Human TNF-α/TNFSF1A, sequence (P01375 77-233 limits assumed): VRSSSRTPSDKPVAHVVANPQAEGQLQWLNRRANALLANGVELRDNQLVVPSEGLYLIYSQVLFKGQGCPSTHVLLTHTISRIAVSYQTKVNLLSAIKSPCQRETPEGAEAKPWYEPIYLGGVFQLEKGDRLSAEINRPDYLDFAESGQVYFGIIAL

Recombinant Human IL-13, sequence (P35225 35-146 limits assumed): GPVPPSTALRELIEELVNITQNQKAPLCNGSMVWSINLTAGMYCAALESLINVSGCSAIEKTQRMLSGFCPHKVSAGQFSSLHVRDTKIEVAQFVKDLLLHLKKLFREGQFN

| Binder | Kd [1] | koff [1] | kon [1] | C-Terminal VD huTNFα Neutralization Assay IC50 [2] |
| --- | --- | --- | --- | --- |
| B1 | < 0.017 nM | < 1e-06 s⁻¹ | 58000 M⁻¹ s⁻¹ |  |
| B2 | 0.37 nM | 8.8e-05 s⁻¹ | 240000 M⁻¹ s⁻¹ |  |
| B3 | 0.9 nM | 7.7e-05 s⁻¹ | 85000 M⁻¹ s⁻¹ |  |
| B4 | 0.087 nM | 4.8e-05 s⁻¹ | 550000 M⁻¹ s⁻¹ |  |
| B5 |  |  |  | 0.673 nM |
| B6 | 0.13 nM | 0.00012 s⁻¹ | 920000 M⁻¹ s⁻¹ |  |
| B7 | 0.045 nM | 2.8e-05 s⁻¹ | 630000 M⁻¹ s⁻¹ |  |
| B8 | 0.019 nM | 6.4e-05 s⁻¹ | 3.4e+06 M⁻¹ s⁻¹ |  |
| B9 | 0.87 nM | 5.9e-05 s⁻¹ | 68000 M⁻¹ s⁻¹ |  |
| B10 | 1.1 nM | 8.6e-05 s⁻¹ | 79000 M⁻¹ s⁻¹ |  |
| B11 | 1.2 nM | 5.9e-05 s⁻¹ | 48000 M⁻¹ s⁻¹ |  |
| B12 | 0.82 nM | 4.8e-05 s⁻¹ | 58000 M⁻¹ s⁻¹ |  |
| B13 | 0.32 nM | 4.4e-05 s⁻¹ | 140000 M⁻¹ s⁻¹ |  |
| B14 | 0.3 nM | 4.6e-05 s⁻¹ | 150000 M⁻¹ s⁻¹ |  |
